Test results taken from US20210063414A1, “METHODS FOR PREVENTING AND/OR TREATING BONE LOSS CONDITIONS BY MODULATING IRISIN” (Dana-Farber Cancer Institute, Inc., priority 2018, published 2021).

Key:
Assay in all cases: Crosslinking/co-immunoprecipitation/mass spectrometry (TMT quantitative proteomics) to identify irisin receptors
Assay type in all cases: binding
[1] = biological target: T1, MLO-Y4 cell surface proteins (Mus musculus, UniProt P97360); settings: co-precipitated protein Etv6 (ETV6_MOUSE)
T1 construct: endogenous in cells; host or cells: MLO-Y4
T1 sequence (P97360 1-485): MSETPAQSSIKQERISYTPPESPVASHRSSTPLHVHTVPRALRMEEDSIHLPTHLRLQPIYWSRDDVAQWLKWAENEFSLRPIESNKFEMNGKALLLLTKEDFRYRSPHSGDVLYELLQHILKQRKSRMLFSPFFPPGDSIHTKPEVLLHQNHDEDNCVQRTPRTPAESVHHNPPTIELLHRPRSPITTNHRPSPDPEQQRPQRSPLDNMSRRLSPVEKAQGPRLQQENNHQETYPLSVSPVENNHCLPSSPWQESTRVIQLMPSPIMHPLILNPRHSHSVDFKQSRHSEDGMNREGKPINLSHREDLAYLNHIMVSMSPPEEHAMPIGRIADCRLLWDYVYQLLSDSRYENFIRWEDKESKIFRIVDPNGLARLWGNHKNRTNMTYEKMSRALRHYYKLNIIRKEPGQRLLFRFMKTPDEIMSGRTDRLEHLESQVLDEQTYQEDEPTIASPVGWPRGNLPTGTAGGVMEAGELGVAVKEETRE
Outline: (§1)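 Relative protein abundance came from 6-plex TMT MS3 quantitation on an Orbitrap Fusion Lumos, after in-gel trypsin digestion of Coomassie-stained SDS-PAGE lanes. Input was a Ni-NTA pulldown (250 mM imidazole elution) of lysates from murine MLO-Y4 cells. These cells were treated on ice with His-tagged irisin or adipsin (10 nM, 20 min) in serum-free medium, then crosslinked with 1.5 mM DTSSP for 30 min.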

[2] = biological target: T2, MLO-Y4 cell surface proteins (Mus musculus, UniProt Q8R1I1); settings: co-precipitated protein Uqcr10 (QCR9_MOUSE)
T2 construct: endogenous in cells; host or cells: MLO-Y4
T2 sequence (Q8R1I1 1-64): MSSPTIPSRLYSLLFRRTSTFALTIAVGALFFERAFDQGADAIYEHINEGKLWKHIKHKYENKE
Outline: as §1

[3] = biological target: T3, MLO-Y4 cell surface proteins (Mus musculus, UniProt P04117); settings: co-precipitated protein Fabp4 (FABP4_MOUSE)
T3 construct: endogenous in cells; host or cells: MLO-Y4
T3 sequence (P04117 1-132): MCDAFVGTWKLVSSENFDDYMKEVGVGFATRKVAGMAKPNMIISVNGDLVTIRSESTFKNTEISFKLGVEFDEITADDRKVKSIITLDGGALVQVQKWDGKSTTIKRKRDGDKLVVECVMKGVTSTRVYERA
Outline: as §1

[4] = biological target: T4, MLO-Y4 cell surface proteins (Mus musculus, UniProt Q62028); settings: co-precipitated protein Pla2r1 (PLA2R_MOUSE)
T4 construct: endogenous in cells; host or cells: MLO-Y4
Outline: as §1

[5] = biological target: T5, MLO-Y4 cell surface proteins (Mus musculus, UniProt P62737); settings: co-precipitated protein Acta2 (ACTA_MOUSE)
T5 construct: endogenous in cells; host or cells: MLO-Y4
Outline: as §1

[6] = biological target: T6, MLO-Y4 cell surface proteins (Mus musculus, UniProt C0HKE1); settings: co-precipitated protein Hist1h2ab (H2A1_MOUSE)
T6 construct: endogenous in cells; host or cells: MLO-Y4
Outline: as §1

T4 sequence (Q62028 27-1487): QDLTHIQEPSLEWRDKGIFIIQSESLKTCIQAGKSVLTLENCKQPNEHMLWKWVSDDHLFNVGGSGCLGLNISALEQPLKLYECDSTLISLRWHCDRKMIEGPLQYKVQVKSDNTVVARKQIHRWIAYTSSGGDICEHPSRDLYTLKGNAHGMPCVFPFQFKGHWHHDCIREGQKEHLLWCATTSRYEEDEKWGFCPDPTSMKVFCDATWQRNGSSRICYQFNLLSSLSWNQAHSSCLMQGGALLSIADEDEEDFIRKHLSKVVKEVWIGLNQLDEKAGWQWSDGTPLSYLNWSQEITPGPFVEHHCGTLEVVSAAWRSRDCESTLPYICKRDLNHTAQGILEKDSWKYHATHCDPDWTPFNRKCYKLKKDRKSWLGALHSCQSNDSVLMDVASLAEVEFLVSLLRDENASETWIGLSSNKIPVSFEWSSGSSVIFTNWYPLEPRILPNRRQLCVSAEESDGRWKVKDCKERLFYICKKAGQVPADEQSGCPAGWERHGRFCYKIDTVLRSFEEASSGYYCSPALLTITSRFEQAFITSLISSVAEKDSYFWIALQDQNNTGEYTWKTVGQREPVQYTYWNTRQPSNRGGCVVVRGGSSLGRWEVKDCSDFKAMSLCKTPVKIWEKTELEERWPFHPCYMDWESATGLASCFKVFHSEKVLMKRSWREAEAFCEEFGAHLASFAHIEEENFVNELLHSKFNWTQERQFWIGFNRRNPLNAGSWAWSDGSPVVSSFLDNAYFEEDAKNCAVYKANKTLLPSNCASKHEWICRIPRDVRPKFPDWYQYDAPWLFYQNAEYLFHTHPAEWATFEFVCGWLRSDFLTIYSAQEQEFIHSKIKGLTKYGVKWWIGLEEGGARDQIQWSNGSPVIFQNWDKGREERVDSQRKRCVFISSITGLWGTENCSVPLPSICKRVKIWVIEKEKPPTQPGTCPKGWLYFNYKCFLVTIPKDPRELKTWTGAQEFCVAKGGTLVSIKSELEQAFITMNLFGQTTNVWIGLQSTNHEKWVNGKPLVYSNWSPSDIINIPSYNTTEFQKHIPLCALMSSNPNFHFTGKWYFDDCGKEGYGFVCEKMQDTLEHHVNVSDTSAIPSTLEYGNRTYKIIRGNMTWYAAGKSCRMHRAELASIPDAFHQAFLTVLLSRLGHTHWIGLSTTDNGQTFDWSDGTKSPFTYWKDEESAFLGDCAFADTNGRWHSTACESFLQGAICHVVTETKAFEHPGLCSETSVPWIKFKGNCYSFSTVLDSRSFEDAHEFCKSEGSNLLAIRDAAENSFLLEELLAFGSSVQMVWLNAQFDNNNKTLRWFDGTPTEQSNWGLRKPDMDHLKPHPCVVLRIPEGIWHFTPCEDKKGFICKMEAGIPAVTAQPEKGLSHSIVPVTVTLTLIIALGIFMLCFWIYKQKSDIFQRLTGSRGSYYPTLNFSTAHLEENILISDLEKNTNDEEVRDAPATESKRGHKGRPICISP

- TMT signal-to-noise ratio [1]: 137.108
- TMT signal-to-noise ratio [2]: 243.198
- TMT signal-to-noise ratio [3]: 746.54
- TMT signal-to-noise ratio [4]: 519.664
- TMT signal-to-noise ratio [5]: 361.157
- TMT signal-to-noise ratio [6]: 273.934
Substance: adipsin
